Data from US20210054042A1 (UNIVERZA V LJUBLJANI, published 2021).
No end group written: not given here.

Assays:
Assay in all cases: phage ELISA
BSA = biological target: T1, BSA (UniProt P02769 25-607)
T1 construct: Negative control target; also called bovine serum albumin
Experimental: (§1) Wells of a 96-well microplate (Nunc, Maxisorp) were either coated with human Fc fragment solution or streptavidin as negative control. The wells were blocked with BSA and contacted with amplified population of each individual clone. Bound phages were detected by the addition of horseradish peroxidase (HRP)-conjugated anti-M13 monoclonal antibodies using the chromogenic substrate (3,3′,5,5′-tetramethylbenzidine (TMB)) solution, and absorbance at 450 nm was measured.
(§2) The binding activity of phage clone displaying the minimized peptide SEQ ID NO: 2, was further evaluated by phage ELISA (as described above) using different subclasses of native human IgGs and different therapeutic monoclonal antibodies. BSA, avidin and SA were used as targets in negative control wells.

avidin = biological target: T2, avidin (UniProt P02701 25-152)
T2 construct: Negative control target
T2 sequence (P02701 25-152 limits assumed): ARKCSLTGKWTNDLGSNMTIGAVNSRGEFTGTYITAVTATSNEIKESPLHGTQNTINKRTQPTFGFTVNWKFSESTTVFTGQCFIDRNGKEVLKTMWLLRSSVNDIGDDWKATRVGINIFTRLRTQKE
Experimental: as §1, §2

streptavidin = biological target: T3, streptavidin (UniProt P22629 37-163, limits assumed)
T3 construct: Negative control target; also called SA
T3 sequence (P22629 37-163 limits assumed): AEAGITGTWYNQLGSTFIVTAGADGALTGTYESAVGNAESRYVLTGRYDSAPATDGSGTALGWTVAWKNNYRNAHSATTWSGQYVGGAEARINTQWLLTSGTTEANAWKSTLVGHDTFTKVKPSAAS
Experimental: as §1, §2

Measured: binding result

T1 sequence (P02769 25-607 limits assumed): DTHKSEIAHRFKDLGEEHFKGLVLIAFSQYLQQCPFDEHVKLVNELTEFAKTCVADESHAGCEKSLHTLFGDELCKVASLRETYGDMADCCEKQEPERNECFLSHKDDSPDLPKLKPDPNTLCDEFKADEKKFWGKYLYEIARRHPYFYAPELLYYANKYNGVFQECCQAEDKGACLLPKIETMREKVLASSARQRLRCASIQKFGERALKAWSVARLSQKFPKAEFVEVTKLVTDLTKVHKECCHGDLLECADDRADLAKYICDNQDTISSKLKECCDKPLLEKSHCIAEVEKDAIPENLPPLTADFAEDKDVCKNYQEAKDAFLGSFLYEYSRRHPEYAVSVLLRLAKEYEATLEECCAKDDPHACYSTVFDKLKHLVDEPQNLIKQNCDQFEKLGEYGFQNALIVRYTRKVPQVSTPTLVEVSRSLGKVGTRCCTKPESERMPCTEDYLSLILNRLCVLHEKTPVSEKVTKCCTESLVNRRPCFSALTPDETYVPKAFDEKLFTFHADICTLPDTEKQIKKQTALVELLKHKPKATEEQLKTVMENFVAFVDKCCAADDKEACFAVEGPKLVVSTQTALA

B1: phage clone displaying the minimized peptide SEQ ID NO: 2 (peptide, not shown: large carriers)
peptide: GSYWYQVWF
modifications: also: displayed on phage as P3 coat protein fusion, fusion limits and linker not given here
no binding: BSA | avidin | streptavidin
